Results published in patent publication US5658784, “Nucleic acid encoding transcription factor p300 and uses of p300” (Dana-Farber Cancer Institute, Inc., dated 1997).

Target: p300 (endogenous human E1A-associated 300 kD protein) (human)
Test: co-immunoprecipitation with anti-E1A M73 from 35S labelled infected U-2 OS cells

B1: E1A proteins of adenovirus dl646 (missing amino acids 30-85) (other)
chain: MRHIICHGGVITEEMAASLLDQLIEEVLAAPGSPEPPHLSRQPEQPEQRALGPVSMPNLVPEVIDLTCHEAGFPPSDDEDEEGEEFVLDYVEHPGHGCRSCHYHRRNTGDPDIMCSLCYMRTCGMFVYSPVSEPEPEPEPEPEPARPTRRPKMAPAILRRPTSPVSRECNSSTDSCDSGPSNTPPEIHPVVPLCPIKPVAVRVGGRRQAVECIEDLLNEPGQPLDLSCKRPRP
- binding result: no binding
